The values below come from publication PMC2773007.

For the test, the target named is Dvl2 PRR2 mutant (Δ370–376), FLAG-tagged (human) (UniProt O14641).
Sequence of UniProt O14641 (O14641 other isoform, or with tags, fused parts or gaps mutant): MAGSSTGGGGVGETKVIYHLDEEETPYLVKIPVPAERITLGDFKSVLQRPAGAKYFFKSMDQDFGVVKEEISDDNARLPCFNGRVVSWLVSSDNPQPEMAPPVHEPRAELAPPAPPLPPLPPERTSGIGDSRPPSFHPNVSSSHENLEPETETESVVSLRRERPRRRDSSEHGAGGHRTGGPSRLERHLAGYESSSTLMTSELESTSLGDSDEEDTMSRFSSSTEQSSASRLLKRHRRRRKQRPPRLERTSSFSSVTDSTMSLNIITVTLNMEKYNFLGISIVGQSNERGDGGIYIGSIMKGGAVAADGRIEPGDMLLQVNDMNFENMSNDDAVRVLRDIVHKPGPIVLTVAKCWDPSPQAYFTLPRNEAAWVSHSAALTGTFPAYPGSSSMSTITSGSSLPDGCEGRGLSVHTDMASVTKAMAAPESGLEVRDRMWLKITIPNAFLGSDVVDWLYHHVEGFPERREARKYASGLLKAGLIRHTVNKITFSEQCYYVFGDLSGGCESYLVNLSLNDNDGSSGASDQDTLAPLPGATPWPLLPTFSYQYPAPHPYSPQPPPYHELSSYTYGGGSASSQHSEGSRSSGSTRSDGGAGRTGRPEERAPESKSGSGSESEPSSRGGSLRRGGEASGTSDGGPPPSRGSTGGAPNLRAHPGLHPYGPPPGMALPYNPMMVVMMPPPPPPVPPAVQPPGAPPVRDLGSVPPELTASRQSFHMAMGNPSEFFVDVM

As to “HA-tagged Grb2 (human growth factor receptor-bound-2) (from UniProt P62993 1-217) (natural protein)”, the sTF LEF/TCF luciferase reporter in HEK293 cells, co-expression of the Dvl2 mutant and Grb2 was found to be 60 % decrease.
